# From patent publication US12319739 (F STAR DELTA, dated 2025)
# T1: cMSLN-His-Avi (cynomolgus, single biotin on the Avi tag in the biotinylated form)
# T1 construct: Monomeric; also called cyno MSLN-His-Avi; cMSLN-Avi-His
# T1 chain: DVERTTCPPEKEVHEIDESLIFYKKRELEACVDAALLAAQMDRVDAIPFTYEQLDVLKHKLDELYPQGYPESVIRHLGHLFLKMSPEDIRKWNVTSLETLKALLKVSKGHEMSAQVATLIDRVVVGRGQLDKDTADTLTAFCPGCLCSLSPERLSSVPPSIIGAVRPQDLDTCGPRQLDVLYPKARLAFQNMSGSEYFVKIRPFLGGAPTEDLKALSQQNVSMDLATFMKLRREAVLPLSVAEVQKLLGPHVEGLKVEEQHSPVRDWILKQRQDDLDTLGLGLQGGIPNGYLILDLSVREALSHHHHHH
# T2: human CEACAM-5-His-Fc (human, UniProt P06731 35-685)
# T2 sequence (looked up): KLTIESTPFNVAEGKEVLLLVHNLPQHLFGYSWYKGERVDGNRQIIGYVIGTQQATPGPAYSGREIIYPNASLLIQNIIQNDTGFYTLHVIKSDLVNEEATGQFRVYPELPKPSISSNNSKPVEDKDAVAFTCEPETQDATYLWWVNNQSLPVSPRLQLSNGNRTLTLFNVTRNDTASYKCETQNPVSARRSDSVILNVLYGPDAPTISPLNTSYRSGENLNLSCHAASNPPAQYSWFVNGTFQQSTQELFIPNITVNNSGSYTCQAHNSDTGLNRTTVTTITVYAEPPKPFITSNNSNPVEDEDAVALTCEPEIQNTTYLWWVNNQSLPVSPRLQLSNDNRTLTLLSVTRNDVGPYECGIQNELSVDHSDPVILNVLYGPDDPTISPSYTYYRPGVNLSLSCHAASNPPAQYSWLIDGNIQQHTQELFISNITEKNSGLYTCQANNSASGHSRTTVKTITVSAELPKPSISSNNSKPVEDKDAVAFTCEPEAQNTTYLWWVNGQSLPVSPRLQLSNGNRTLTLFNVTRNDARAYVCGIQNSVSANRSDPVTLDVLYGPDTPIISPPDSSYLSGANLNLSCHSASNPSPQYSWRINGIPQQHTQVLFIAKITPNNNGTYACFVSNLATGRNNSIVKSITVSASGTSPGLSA
# T3: human E-Cadherin (human, UniProt P12830 155-707)
# T3 sequence (looked up): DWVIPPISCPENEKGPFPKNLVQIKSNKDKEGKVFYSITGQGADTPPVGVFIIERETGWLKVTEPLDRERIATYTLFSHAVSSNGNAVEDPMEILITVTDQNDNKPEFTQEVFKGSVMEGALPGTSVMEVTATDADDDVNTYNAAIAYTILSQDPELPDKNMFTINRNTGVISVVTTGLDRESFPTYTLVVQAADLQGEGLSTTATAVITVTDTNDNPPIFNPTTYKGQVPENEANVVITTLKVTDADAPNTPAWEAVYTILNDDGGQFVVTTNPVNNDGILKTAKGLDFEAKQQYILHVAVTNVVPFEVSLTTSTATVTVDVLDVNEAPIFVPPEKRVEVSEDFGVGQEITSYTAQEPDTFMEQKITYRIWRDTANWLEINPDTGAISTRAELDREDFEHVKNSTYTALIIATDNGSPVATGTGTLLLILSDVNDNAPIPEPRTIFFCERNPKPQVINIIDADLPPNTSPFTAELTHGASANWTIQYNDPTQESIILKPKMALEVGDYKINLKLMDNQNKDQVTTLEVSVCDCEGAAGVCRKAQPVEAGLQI
# T4: human EpCAM-hFc (human, UniProt P16422 24-265, limits assumed)
# T4 sequence (looked up): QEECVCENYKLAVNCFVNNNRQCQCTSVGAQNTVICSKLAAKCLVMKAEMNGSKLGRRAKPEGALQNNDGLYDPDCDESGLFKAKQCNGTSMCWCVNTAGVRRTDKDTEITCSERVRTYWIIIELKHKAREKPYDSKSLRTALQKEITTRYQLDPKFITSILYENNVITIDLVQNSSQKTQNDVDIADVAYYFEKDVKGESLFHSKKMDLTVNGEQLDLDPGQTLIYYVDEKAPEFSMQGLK
# B1: FS22-172-003-AA/FS28-024-052 (bispecific antibody, human IgG1, kappa, L234A L235A, V domains shown)
# VH: EVQLLESGGGLVQPGGSLRLSCAASGFTLSYSSMSWVRQAPGKGLEWVSFITPSTGYTHYADSVKGRFTISRDNSKNTLYLQMNSLRAEDTAVYYCARRALLFDYWGQGTLVTVSS
# VL: EIVLTQSPGTLSLSPGERATLSCRASQSVSSSYLAWYQQKPGQAPRLLIYGASSRATGIPDRFSGSGSGTDFTLTISRLEPEDFAVYYCQQASSYPLTFGQGTKVEIKR
# notes: IgG1 mAb^2 with LALA
# B2: FS28-185 (mAb in G1-AA format) (antibody, human IgG1, V domains shown)
# VH: EVQLLESGGGLVQPGGSLRLSCAASGFTFTTSAMSWVRQAPGKGLEWVSRINPYEGETNYADSVKGRFTISRDNSKNTLYLQMNSLRAEDTAVYYCARGWSIATYYKSAMDYWGQGTLVTVSS
# VL: EIVLTQSPGTLSLSPGERATLSCRASQSVSSSYLAWYQQKPGQAPRLLIYGASSRATGIPDRFSGSGSGTDFTLTISRLEPEDFAVYYCQQSSYSAPVTFGQGTKVEIKR
# B3: FS28-256 (mAb in G1-AA format) (antibody, human IgG1, V domains shown)
# VH: EVQLLESGGGLVQPGGSLRLSCAASGFTFTNTYMSWVRQAPGKGLEWVSNISPTYSTTNYADSVKGRFTISRDNSKNTLYLQMNSLRAEDTAVYYCARYNSYQGGLDYWGQGTLVTVSS
# VL: EIVLTQSPGTLSLSPGERATLSCRASQSVSSSYLAWYQQKPGQAPRLLIYGASSRATGIPDRFSGSGSGTDFTLTISRLEPEDFAVYYCQQSYYYPITFGQGTKVEIK
# Assays:
# [1] = biological target: T5, hMSLN-His-Avi (human, UniProt Q13421 296-598, single biotin on the Avi tag in the biotinylated form); test: ratio of SPR KDs
# T5 construct: Monomeric; also called human MSLN-His-Avi; hMSLN-Avi-His
# Experimental: (§1) 7.1 Binding of CD137/MSLN mAb2 to Human MSLN Under Avid Conditions—Antigen Capture Method Binding of all mAb^2 to MSLN immobilised on a BIAcore chip was tested to determine the binding affinity to human MSLN under avid conditions, where a high concentration of immobilised antigen is available to allow the antibody to bind avidly. […] The association time was 5 min and the dissociation time was 10 min. Running buffer was HBS-EP (GE Healthcare BR100188). Flow cells were regenerated by injecting Glycine-HCl pH1.5 at a flow rate of 30 μl/min for 30 seconds. Data were analysed by double referencing against a flow cell which was intentionally left blank (no antigen coating). The binding kinetics were fitted with a 1:1 Langmuir model to generate binding association (k_a) and dissociation (k_d) rates. Equilibrium binding constants (K_D) were calculated by dividing the dissociation rate by the association rate for each sample. Data analysis was performed with BiaEvaluation software version 3.2.
# (§2) The association time was 5 min and the dissociation time was 5 min. Running buffer was HBS-EP (GE Healthcare BR100188). Flow cells were regenerated by injecting Glycine-HCl pH2.1 at a flow rate of 30 μl/min for 15 seconds. The data was analysed as described in Example 7.1.
# [2] = biological target: human CD137 on primary human CD8+ T cells (human, UniProt Q07011 24-255); test: cell-based or functional assay
# [3] = biological target: T6, endogenous cell surface human MSLN (human, UniProt Q13421 296-598); test: flow cytometry, NCI-H226 cells
# T6 construct: whole, on cells; The cell line is named under assay; also called cell-surface MSLN on NCI-H226, OVCAR-3 and AsPC-1 cells
# Experimental: (§3) To confirm binding to cell surface MSLN, mAb² listed in Table 9 were analysed for binding to endogenous cell surface MSLN on the human lung cancer cell line NCI-H226. In addition, and because MSLN can be found in blood in a shed soluble form, there is a risk that this circulating MSLN might affect exposure and ultimately potency of our mAb². To confirm that presence of soluble MSLN has minimal impact, additional binding experiments to NCI-H226 cells were performed in the presence of 20 nM soluble MSLN which is 10-20 times the level of soluble MSLN found to be of diagnostic value for defining malignant mesothelioma and lung cancer patients as MSLN positive (Cui et al., 2014). Briefly, NCI-H226 cells (ATCC CRL-5826) were harvested from T175 cell culture flasks using Accutase (Gibco, A11105-01).
# (§4) In both cases, cells were centrifuged at 1200 rpm for 3 min and resuspended in ice cold FACS buffer made up of DPBS (Life Technologies, 14190169) and 1% BSA (Sigma-Aldrich, A7906) at 2×10⁶ cells/ml and 50 μl per well was seeded in a 96-well V-bottom plate (Costar, 3894). All antibodies tested were diluted in FACS buffer in 120 μl at a concentration range of 0.01-200 nM (4-fold dilutions). The NCI-H226 cells were then centrifuged, supernatant removed and cells resuspended in 100 μl of each mAb dilution and incubated at 4° C. for 45 min. Cells were washed twice by centrifugation with 150 μl FACS buffer, resuspended in 100 μl containing goat anti-human IgG (γ-chain specific) F(ab')2 fragment-R-Phycoerythrin antibody (Sigma, P8047) diluted 1:1000 in FACS buffer and incubated at 4° C. for 45 min. The cells were washed once with 150 μl FACS buffer and then with 150 μl DPBS, resuspended in 150 μl DPBS containing DAPI (Biotium, 40043) at 1:10.000 and read on the BDCantoII or iQue (Intellicyt).
# [4] = biological target: T6, endogenous cell surface human MSLN; test: flow cytometry, NCI-H226 cells + 20 nM soluble MSLN
# Experimental: as §3, §4
# [5] = biological target: T5, hMSLN-His-Avi; test: SPR, hMSLN-His-Avi immobilised ~100 RU, mAb2 injected
# Experimental: as §1
# [6] = biological target: T1, cMSLN-His-Avi; test: SPR, mAb2 captured on Protein G, cMSLN-His-Avi in solution
# Experimental: as §2
# [7] = biological target: T5, hMSLN-His-Avi; test: SPR, mAb2 captured on Protein G, hMSLN-His-Avi in solution
# Experimental: as §2
# [8] = biological target: T7, hCD137-mFc-Avi (human; mouse, UniProt Q07011 24-186, one biotin on each Avi tag in the biotinylated form); test: SPR, mAb2 captured by anti-human Fab, hCD137-mFc-Avi in solution
# T7 construct: also called human dimeric CD137; human CD137-mFc-Avi
# Experimental: A Biacore CM5 chip was coated with anti-human Fab using a Human Fab Capture Kit (GE Healthcare 28958325) according to manufacturer's conditions, to a surface density of approximately 9000 RU. […] The association time was 5 min and the dissociation time was 5 min. Running buffer was HBS-EP. Flow cells were regenerated by injecting two repeat injections of 10 mM glycine-HCl at pH 2.1 at a flow rate of 30 μl/min for 30 seconds. Data analysis was performed as described in earlier examples (see e.g. Example 7.1).
# [9] = biological target: T2, human CEACAM-5-His-Fc; test: ELISA, antigen coated 1 µg/ml
# Experimental: (§5) Binding of the anti-MSLN mAbs, tested at a concentration range of 0.02 to 1000 nM (3-fold dilutions) was detected using anti-human Fab-HRP (Sigma, A0293).
# [10] = biological target: T3, human E-Cadherin; test: ELISA, antigen coated 1 µg/ml
# Experimental: as §5
# [11] = biological target: human Thrombomodulin (human, UniProt P07204 19-515, limits assumed); test: ELISA, antigen coated 1 µg/ml
# Experimental: as §5
# [12] = biological target: T4, human EpCAM-hFc; test: ELISA, antigen coated 1 µg/ml
# Experimental: as §5
# [13] = biological target: T5, hMSLN-His-Avi; test: ELISA, hMSLN-His-Avi coated 1 µg/ml
# [14] = biological target: T5, hMSLN-His-Avi; test: SPR, hMSLN-His-Avi immobilised at 50 RU
# [15] = biological target: T5, hMSLN-His-Avi; test: SPR, hMSLN-His-Avi immobilised at 100 RU
# T5 sequence (Q13421 other isoform, or with tags, fused parts or gaps): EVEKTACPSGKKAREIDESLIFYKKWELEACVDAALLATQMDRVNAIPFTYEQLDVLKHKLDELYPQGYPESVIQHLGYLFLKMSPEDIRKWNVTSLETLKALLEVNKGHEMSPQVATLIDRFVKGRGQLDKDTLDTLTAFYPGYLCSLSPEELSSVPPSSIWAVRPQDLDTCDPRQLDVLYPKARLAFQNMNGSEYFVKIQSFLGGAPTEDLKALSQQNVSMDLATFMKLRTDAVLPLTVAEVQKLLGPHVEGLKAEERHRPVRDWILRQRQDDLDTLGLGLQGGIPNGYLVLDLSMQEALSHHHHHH
# T6 sequence (Q13421 other isoform, or with tags, fused parts or gaps limits assumed): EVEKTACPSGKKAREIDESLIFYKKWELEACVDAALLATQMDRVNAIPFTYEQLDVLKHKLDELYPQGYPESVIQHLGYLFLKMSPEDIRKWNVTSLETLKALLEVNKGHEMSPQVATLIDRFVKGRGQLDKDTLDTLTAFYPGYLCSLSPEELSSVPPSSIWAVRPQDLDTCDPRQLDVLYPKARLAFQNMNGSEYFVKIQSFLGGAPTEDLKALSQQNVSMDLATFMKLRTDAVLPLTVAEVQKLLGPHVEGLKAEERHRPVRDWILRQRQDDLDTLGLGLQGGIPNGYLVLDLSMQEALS
# human CD137 on primary human CD8+ T cells, sequence (Q07011 24-255): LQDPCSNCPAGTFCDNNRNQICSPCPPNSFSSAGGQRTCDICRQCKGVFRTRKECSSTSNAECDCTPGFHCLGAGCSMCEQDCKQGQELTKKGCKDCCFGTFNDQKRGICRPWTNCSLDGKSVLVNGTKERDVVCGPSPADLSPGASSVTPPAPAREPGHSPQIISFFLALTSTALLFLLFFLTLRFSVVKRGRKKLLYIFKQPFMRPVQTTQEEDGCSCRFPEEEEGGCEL
# human Thrombomodulin, sequence (P07204 19-515 limits assumed): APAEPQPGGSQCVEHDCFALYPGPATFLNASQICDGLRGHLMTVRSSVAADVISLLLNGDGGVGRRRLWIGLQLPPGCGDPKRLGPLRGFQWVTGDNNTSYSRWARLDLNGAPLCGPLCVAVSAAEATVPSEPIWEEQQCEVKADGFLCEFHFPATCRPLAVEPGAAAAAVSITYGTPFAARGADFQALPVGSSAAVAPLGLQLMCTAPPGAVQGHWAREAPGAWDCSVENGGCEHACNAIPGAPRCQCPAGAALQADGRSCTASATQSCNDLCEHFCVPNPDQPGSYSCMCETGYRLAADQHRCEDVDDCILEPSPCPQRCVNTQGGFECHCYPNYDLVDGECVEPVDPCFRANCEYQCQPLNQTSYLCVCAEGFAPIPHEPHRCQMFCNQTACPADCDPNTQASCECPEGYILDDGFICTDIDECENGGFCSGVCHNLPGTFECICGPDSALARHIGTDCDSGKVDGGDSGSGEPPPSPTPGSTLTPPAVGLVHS
# T7 sequence (Q07011 24-186): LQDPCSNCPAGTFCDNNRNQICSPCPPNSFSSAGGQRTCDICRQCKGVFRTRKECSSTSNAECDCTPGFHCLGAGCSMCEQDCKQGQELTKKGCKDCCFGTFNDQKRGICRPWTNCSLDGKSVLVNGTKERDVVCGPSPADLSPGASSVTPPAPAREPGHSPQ
Binder,binding result [9],binding result [10],binding result [11],binding result [12],EC50 [13],maximum binding signal [13],Kd [14],Kd [15],other results
B1,–,–,–,–,–,–,–,–,"KD ratio in solution/immobilised human MSLN [1]: 85; Emax (IL-2 pg/ml), NCI-H226 co-culture, Donor A [2]: 1070 pg/mL; Emax (IL-2 pg/ml), NCI-H226 co-culture, Donor B [2]: 1690 pg/mL; IL-2 release EC50, NCI-H226 co-culture, Donor A [2]: 0.04 nM; IL-2 release EC50, NCI-H226 co-culture, Donor B [2]: 0.05 nM; EC50 [3]: 0.884 nM; Emax (MFI) [3]: 752000 MFI; EC50 [4]: 3.64 nM; Emax (MFI) [4]: 799000 MFI; Kd [5]: 0.39 nM; Kd [6]: 239 nM; Kd [7]: 33.1 nM; Kd [8]: 1.51 nM"
B2,no binding (tested: 1000 nM),no binding (tested: 1000 nM),no binding (tested: 1000 nM),no binding (tested: 1000 nM),~0.5 nM,3,37 nM,29.6 nM,–
B3,no binding (tested: 1000 nM),no binding (tested: 1000 nM),no binding (tested: 1000 nM),no binding (tested: 1000 nM),~0.5 nM,3,26.2 nM,23.2 nM,–
